# B1: AT10-004 (antibody, V domains shown)
# VH: QVQLVQSGAEVRKPGASVKVSCKASGYTFTRHGISWVRQAPGQGLEWMGWISAYTGDTDYAQKFQGRVTMTTDTSTNTAYMELRSLRSDDAAVYYCARLRLQGEVVVPPSQSNWFDPWGQGTLVTVSS
# VL: EIVLTQSPATLSLYPGERATLSCRASQSVSRYLAWYQQKPGQAPRLLIYDASNRATGIPARFSGSGSGTDFTLTISSLEPEDFAVYYCQQRSNWLKITFGQGTRLEIKG
# B2: AT10-002 (antibody, V domains shown)
# VH: QLQLQESGPRLVKPSETLSLTCSVSGVSISSSNYYWGWIRQPPGKGLEWIGTIYHSGSTYYNPSLKSRLIISVDTSKNQFYLQLTSLTAADSAVYYCATGGGFGWSQTYFGYWGQGTLVTASS
# VL: QSALTQPASVSGSPGQSITISCTGTSSDVGAYNYVSWYQHHPGKAPKLMIYDVTYRPSGVSTRFSGSKSGNTASLTISGLQAEDEADYYCSSQSRSSTLVIFGGGTKLTVLG
# B3: AT10-001 (antibody, V domains shown)
# VH: EVQLLESGGGLVQPGGSLRLSCAASGFSFSTYAMSWVRQAPGKGLEWVSGISGSGESTYYADSVKGRFTVSRDNSKNTLYLQMNSLRAEDTAVYYCAKQGDHIAWLLRGINFDYWGQGVLVTVSS
# VL: EIVLTQSPGTLSLSPGERATLSCRASQSVSSSYLAWYQQKPGQAPRLLIYGASTRATGIPDRFSGRGSGTDFTLTISSLEPEDFAVYYCQNYGSPFLFTFGPGTKVDIKR
# B4: AT10-005 (antibody, V domains shown)
# VH: QVQLVQSGAEVKKPGSSVKVSCKASGGAFSNYAISWVRQAPGQGLEWMGGIIPIFGTTNYAQKFQGRVTITADKFTTIAYMELRSLRSEDTAVYYCARHGGVYYYGSASSGWFDPWGQGTLVTVSS
# VL: EIVLTQSPGTLSLSPGERATLSCRASQSVSSSYLAWYQQKPGQAPRLLIFGASTRATGIPDRFSGSGSGTDFTLTISRLEPEDFAVFYCQQYGSLPLTFGGGTKVEIKG
# B5: AT10-003 (antibody, V domains shown)
# VH: QVHLVQSGAEVRKPGASVKVSCKVSGYTLNELSIHWLRQAPGRGLEWMGSFDPEDGETIYAQKFQGRVTMTGDTSTDTAYLELTSLRSEDTALYYCARGWGAVTSPFDFWGQGTLVTVSS
# VL: DIVMTQSPLSLPVTPGEPASISCRSSQSLLHSNGHIYFDWYLQKPGQSPQLLIYLVSKRASGVPDRFSGSGSGTDFTLKISRVEAEDVGVYYCMQALETPFTFGPGTKVHIKR
# Legend:
# [1] = target: T1, recombinant HA of full length H3 (A/Aichi/2/1968, full length) (Influenza A virus H3N2 A/Aichi/2/1968 …, UniProt P03437 17-530); assay: ELISA; antigen coated 1 µg/ml; recombinant antibody; design: concentration or dose not given beside the values
# T1 construct: domain: full length; also called H3N2 A/Aichi/2/1968 Full length; full-length H3 HA protein
# HA of H3N2 HKX-31 virus = HA of H3N2 HKX-31 virus (Influenza A virus H3N2 HKX-31); assay: cell-based or functional assay
# [2] = target: HA of H5N1 A/turkey/Turkey/05 virus (Influenza A virus H5N1 …); assay: cell-based or functional assay
# [3] = target: HA of Influenza H1N1 (A/Hawaii/31/2007), on infected MDCK-SIAT cells or on virus (Influenza A virus H1N1 A/Hawaii/31/2007); assay: cell-based or functional assay
Binder,OD 450 nm [1] [OD 450 nm],"IC50, in vitro virus neutralization on MDCK-SIAT cells (HA of H3N2 HKX-31 virus) [µg/mL]","IC50, in vitro virus neutralization on MDCK cells [2] [µg/mL]","IC50, in vitro virus neutralization on MDCK-SIAT cells [3] [µg/mL]"
B1,0.491,,,
B2,0.92,0.25,> 15,
B3,0.953,2.1,> 15,> 15
B4,,,1.3,
B5,1.32,> 15,> 15,

# — patent US20150010566A1 (AIMM THERAPEUTICS B V, published 2015)
